Article PMC6472337, “L amino acid transporter structure and molecular bases for the asymmetry of substrate interaction” (Nature Communications, 2019)
Positions count from the first letter of the chain named. Numbers in names are those of the source.

Assays:
[1] = test system: BasC wild-type; experiment: [3H]L-alanine transport (influx, efflux, exchange) in BasC proteoliposomes; assay type: biochemical, Carnobacterium sp AT7; conditions: for 10 μM [3H]L-alanine exchange into BasC PLs containing 4 mM of the indicated compound: 4 mM compound inside PLs, n=1-3 and mean
Method: BasC-GFP protein was reconstituted in E. coli polar lipids (Sigma-Aldrich, Madrid, Spain), as previously described. Lipids were dried under N2 and suspended in reconstitution buffer (20 mM Tris-Base, 150 mM NaCl, pH 7.4). The suspension was sonicated to clarity and purified BasC protein was added to reach the desired protein to lipid ratio of 1:100 (w:w). To destabilize the liposomes, 1.25% ß-D-octylglucoside was added and the mixture was incubated on ice with occasional agitation for 5 min. DDM and ß-D-octylglucoside were removed by dialysis for 40 h at 4 °C against 100 volumes of dialysis buffer. Proteoliposome (PL) suspensions were frozen in liquid N2 and stored at −80 °C until use.
For uptake experiments, the desired intraliposomal amino acid concentration was added to the PL suspension, which was then subjected to three freeze/thaw cycles. The extraliposomal amino acid content was then removed by ultracentrifugation (100,000 × g for 1 h at 4 °C) and PLs were resuspended to one-third of the initial volume with reconstitution buffer. Amino acid uptake assays were initiated after mixing 10 μl of cold PLs with 180 μl of transport buffer (20 mM Tris-Base, 150 mM NaCl, pH 7.4 plus 0.5–1 µCi/180 µl of radiolabeled L-amino acid (Perkin Elmer, Waltham, MA)) supplemented with the unlabeled amino acid to the desired concentration. This mixture was then incubated at room temperature for the indicated periods. […] Filters were then washed twice with 2 ml of stop buffer and dried, and the trapped radioactivity was counted. Transport measured in PLs containing no amino acid was subtracted from each data point to calculate the net exchange. […] BasC protein in PLs was determined by Coomassie blue staining in SDS-PAGE gels compared with known amounts of BasC in DDM micelles, determined by BCA assay (Pierce, Rockford, IL) and loaded in the same gel.

[2] = test system: AdiC; parameters: method as in PMID 22304019; conditions: cited from earlier work
[3] = substrate: C[C@H](N)C(=O)O; experiment: cells, lysate or membranes; conditions: other: L-alanine uptake, pH 7.4, 37.0 °C
[4] = target: T1, bacterial alanine-serine-cysteine exchanger (BasC), wild-type, purified for crystallography (Carnobacterium sp. AT7); experiment: SPR; Biacore T-100; nanobody captured (around 200 RU) on a CM5 chip coated with anti-His antibody; BasC flowed at 500–2.5 nM; running buffer phosphate buffered saline, 0.17% DM; conditions: both partners purified
T1 construct: BasC, bacterial alanine-serine-cysteine exchanger, a prokaryotic L-type amino acid transporter (LAT); In the transport assays (functional rows) BasC stood as uncleaved BasC-GFP reconstituted in E. coli polar lipid proteoliposomes; also called WT; source: E. coli BL21 Star (DE3), purified in DM (Ni2+-NTA, on-column HRV-3C cleavage); not shown: GFP, C-terminal, cleaved
T1 chain: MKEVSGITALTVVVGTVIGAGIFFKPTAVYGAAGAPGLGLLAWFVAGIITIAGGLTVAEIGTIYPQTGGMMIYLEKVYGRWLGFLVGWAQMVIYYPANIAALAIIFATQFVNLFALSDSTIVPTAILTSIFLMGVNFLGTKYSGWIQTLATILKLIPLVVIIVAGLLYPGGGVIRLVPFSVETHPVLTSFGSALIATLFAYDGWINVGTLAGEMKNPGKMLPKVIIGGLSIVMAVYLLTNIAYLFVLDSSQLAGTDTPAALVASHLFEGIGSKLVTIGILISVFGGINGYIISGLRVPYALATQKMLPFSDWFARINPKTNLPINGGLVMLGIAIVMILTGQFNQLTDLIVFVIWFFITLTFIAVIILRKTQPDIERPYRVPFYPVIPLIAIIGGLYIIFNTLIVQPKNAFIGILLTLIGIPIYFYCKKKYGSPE

[5] = target: BasC; experiment: Surface plasmon resonance of Nb74-BasC interaction; assay type: binding, Carnobacterium sp AT7; conditions: read-out: KD (affinity of Nb74 for BasC)
Method: Surface plasmon resonance (Biacore T-100, GE Healthcare, Chicago, IL) was used to screen 29 Nbs (one from each family) for binding with BasC, purified as for crystallography. […] BasC was assayed at 500–2.5 nM in running buffer. […] The BasC-Nb74 complex rendered the best results initially and consequently crystals were optimized.

[6] = target: T1, bacterial alanine-serine-cysteine …; experiment: crystal structure; BasC incubated with Nb74 at 1:1.2, complex purified by SEC in 0.17% DM; sitting-drop vapor diffusion at 4 °C, 27–29% PEG 400, 0.1 M ammonium acetate pH 8; apo (2.9 Å) and with 100 mM 2-AIB (3.4 Å); conditions: both partners purified
[7] = 5 µM Nb74 in medium, exchange with 4 mM L-alanine, NT = 100, n=1-6 and mean

With `CC(C)(N)C(=O)O` [2-AIB, 2-aminoisobutyric acid] the Km ([1]; 2-AIB as intraliposomal substrate, read-out: intracellular Km) was 34.5 ± 10 mM and the “intracellular Km relative to L-alanine Km” value ([1]; higher than L-alanine Km) was ~ 10 fold.

For `CC(=O)O` [Acetate], the “10 μM [3H]L-alanine exchange into BasC PLs containing 4 mM of the indicated compound” value [1] was “not significant”.

For `CCN` [Ethylamine, ethylamine], the “10 μM [3H]L-alanine exchange into BasC PLs containing 4 mM of the indicated compound” value ([1]; listed as ethylamine) was “not significant”.

In the case of `NCCCC(=O)O` [GABA, γ-aminobutyrate], the “10 μM [3H]L-alanine exchange into BasC PLs containing 4 mM of the indicated compound” value [1] is reported as “not a substrate”.

For `NCCCCN=C(N)N` [agmatine], the “intracellular apparent Km value compared to the extracellular one” value [2] is given as “two-fold higher”.

In the case of `N=C(N)NCCC[C@H](N)C(=O)O` [arginine], the “intracellular apparent Km value compared to the extracellular one” value [2] is listed as “two-fold higher”.

B1: human Asc-1 (hAsc-1) wild-type (Homo sapiens) (protein)
chain: MAGHTQQPSGRGNPRPAPSPSPVPGTVPGASERVALKKEIGLLSACTIIIGNIIGSGIFISPKGVLEHSGSVGLALFVWVLGGGVTALGSLCYAELGVAIPKSGGDYAYVTEIFGGLAGFLLLWSAVLIMYPTSLAVISMTFSNYVLQPVFPNCIPPTTASRVLSMACLMLLTWVNSSSVRWATRIQDMFTGGKLLALSLIIGVGLLQIFQGHFEELRPSNAFAFWMTPSVGHLALAFLQGSFAFSGWNFLNYVTEEMVDARKNLPRAIFISIPLVTFVYTFTNIAYFTAMSPQELLSSNAVAVTFGEKLLGYFSWVMPVSVALSTFGGINGYLFTYSRLCFSGAREGHLPSLLAMIHVRHCTPIPALLVCCGATAVIMLVGDTYTLINYVSFINYLCYGVTILGLLLLRWRRPALHRPIKVNLLIPVAYLVFWAFLLVFSFISEPMVCGVGVIIILTGVPIFFLGVFWRSKPKCVHRLTESMTHWGQELCFVVYPQDAPEEEENGPCPPSLLPATDKPSKPQ
In the case of B1, the Km ([3]; wild-type hAsc-1, HeLa cells) is reported as 0.0675 ± 0.0042 mM and the Vmax ([3]; wild-type hAsc-1, HeLa cells) is reported as 1703 ± 425 pmols µg protein^−1 min^−1.

B2: hAsc-1 K194A mutant (Homo sapiens; K194A) (protein)
chain: B1 chain with K194A
With B2 the Km ([3]; K194A hAsc-1, HeLa cells) was 0.825 ± 0.053 mM and the Vmax ([3]; K194A hAsc-1, HeLa cells) was 152 ± 16 pmols µg protein^−1 min^−1.

B3: anti-BasC nanobody 74 (Nb74) (VHH)
VHH: QVQLVESGGGVVQAGGSLRLSCAASGRTFSSRAMGWFRQAPGEGREFVATISWSGSYTEYADSVKGRVTISRDNAKNTVYLQMNSLKPGDTAVYHCAAKNGGAASNYPNDYVYWGQGTQVTVSS
notes: nanobody from a llama immunised with BasC proteoliposomes, selected by phage display (vector pMESy4); Captured by its His tag on an anti-His antibody in the SPR experiment
In the case of B3, the Kd [4] is reported as 3.9 ± 1.4 nM, the Kd [5] is reported as 3.87 nM and the “stoichiometry N” value [6] is reported as 1. The “Efflux of 10 µM [3H]L-alanine, normalized to non-treated PLs” value [1, 7] was 9.14, the “Influx of 10 µM [3H]L-alanine, normalized to non-treated PLs” value [1, 7] was 105.77 and the IC50 ([1]; read-out: IC50 of 10 µM [3H]L-alanine efflux, efflux in exchange with 4 mM L-alanine, Nb74 in PL medium) was roughly 300 nM.
